In IntAct's records for PubMed 22314232:

B1: Calnexin (Homo sapiens), P27824 (parent)
chain: MEGKWLLCMLLVLGTAIVEAHDGHDDDVIDIEDDLDDVIEEVEDSKPDTTAPPSSPKVTYKAPVPTGEVYFADSFDRGTLSGWILSKAKKDDTDDEIAKYDGKWEVEEMKESKLPGDKGLVLMSRAKHHAISAKLNKPFLFDTKPLIVQYEVNFQNGIECGGAYVKLLSKTPELNLDQFHDKTPYTIMFGPDKCGEDYKLHFIFRHKNPKTGIYEEKHAKRPDADLKTYFTDKKTHLYTLILNPDNSFEILVDQSVVNSGNLLNDMTPPVNPSREIEDPEDRKPEDWDERPKIPDPEAVKPDDWDEDAPAKIPDEEATKPEGWLDDEPEYVPDPDAEKPEDWDEDMDGEWEAPQIANPRCESAPGCGVWQRPVIDNPNYKGKWKPPMIDNPSYQGIWKPRKIPNPDFFEDLEPFRMTPFSAIGLELWSMTSDIFFDNFIICADRRIVDDWANDGWGLKKAADGAAEPGVVGQMIEAAEERPWLWVVYILTVALPVFLVILFCCSGKKQTSGMEYKKTDAPQPDVKEEEEEKEEEKDKGDEEEEGEEKLEEKQKSDAEEDGGTVSQEEEDRKPKAEEDEILNRSPRNRKPRRE

Variants of: B1
Settings: with SEC61A1, P61619
SEC61A1, P61619, sequence (P61619 whole entry): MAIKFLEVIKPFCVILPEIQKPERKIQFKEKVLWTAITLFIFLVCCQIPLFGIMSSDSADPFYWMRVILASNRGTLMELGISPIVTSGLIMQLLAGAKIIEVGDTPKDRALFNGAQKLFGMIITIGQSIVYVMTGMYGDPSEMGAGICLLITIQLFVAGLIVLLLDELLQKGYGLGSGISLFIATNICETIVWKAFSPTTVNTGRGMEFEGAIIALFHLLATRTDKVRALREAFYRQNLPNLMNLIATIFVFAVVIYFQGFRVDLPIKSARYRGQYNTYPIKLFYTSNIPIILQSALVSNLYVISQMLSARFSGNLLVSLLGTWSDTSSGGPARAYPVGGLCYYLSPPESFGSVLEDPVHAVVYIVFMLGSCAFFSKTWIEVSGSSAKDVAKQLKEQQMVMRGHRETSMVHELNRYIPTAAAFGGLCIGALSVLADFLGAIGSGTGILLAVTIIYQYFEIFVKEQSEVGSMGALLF

| Variant | effect of a mutation on the interaction |
| --- | --- |
| P494L | disrupting interaction |

Variants of: B1
Settings: with rl12_human RPL12, P30050

| Variant | effect of a mutation on the interaction |
| --- | --- |
| P494L | disrupting interaction |
